Assay results taken from US20240255507A1.
Read-outs that look alike come from different tables or passages of the source.

Assays:
BSA (bovine) [1] = target: BSA (bovine) (UniProt P02769); experiment: ELISA, BSA coated as negative control, binder 1 µg/mL, chemiluminescence
BSA (bovine) [2] = target: BSA (bovine) (UniProt P02769); experiment: as above; remark: listed apart in the source

Sequence of BSA (bovine) (P02769 25-607 limits assumed): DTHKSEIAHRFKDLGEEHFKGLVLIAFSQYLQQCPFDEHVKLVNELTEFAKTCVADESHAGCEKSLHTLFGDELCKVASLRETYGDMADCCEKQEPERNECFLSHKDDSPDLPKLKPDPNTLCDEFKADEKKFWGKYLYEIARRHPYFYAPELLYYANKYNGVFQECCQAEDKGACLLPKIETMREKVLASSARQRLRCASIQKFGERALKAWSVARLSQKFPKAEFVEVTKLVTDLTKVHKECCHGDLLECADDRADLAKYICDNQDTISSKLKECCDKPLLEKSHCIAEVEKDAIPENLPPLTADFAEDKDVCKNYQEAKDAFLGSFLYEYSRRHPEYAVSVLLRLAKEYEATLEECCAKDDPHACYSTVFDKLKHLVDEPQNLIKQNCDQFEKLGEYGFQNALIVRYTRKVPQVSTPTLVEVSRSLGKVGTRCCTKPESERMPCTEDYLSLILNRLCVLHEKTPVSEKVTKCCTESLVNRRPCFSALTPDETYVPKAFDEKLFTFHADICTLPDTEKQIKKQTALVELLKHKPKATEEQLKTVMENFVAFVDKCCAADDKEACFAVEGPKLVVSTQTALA
Sequence of CR3022 (antibody) (VH): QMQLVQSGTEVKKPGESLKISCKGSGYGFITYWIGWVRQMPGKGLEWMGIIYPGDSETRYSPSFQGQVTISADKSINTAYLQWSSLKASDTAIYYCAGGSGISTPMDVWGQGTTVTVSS
Sequence of CR3022 (antibody) (VL): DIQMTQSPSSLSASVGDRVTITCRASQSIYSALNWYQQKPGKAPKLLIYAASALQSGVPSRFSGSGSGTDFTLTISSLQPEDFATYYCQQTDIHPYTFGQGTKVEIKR
Sequence of BD23 (antibody) (VH): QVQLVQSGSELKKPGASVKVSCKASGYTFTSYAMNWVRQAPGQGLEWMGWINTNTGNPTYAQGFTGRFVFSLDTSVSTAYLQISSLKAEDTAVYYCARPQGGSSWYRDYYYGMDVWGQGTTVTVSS
Sequence of BD23 (antibody) (VL): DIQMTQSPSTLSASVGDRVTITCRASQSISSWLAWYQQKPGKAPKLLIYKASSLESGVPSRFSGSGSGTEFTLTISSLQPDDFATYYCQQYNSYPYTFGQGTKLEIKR

Substance | signal intensity (BSA (bovine) [1]) | signal intensity (BSA (bovine) [2])
BD23 (antibody) | 83 | 13
REGN10987 (antibody) | 63 | 43
REGN10933 (antibody) | 63 | 53
CV30 (antibody) | 33 | 73
CR3022 (antibody) | 53 | 63
